Test results from PMC11297201.

Biological target: β-arrestin2 (UniProt P32121)
Experiment: BRET, MOR-Nluc and β-arrestin2-Venus
Settings: for other: Emax, vehicle-subtracted BRET ratio: reference: vehicle

mu-opioid receptor (MOR, mMOR) (from UniProt P42866) morphine, 10 min
other: Emax, vehicle-subtracted BRET ratio (sites S375): 0.008 BRET ratio

mu-opioid receptor (MOR, mMOR) (from UniProt P42866) DAMGO, 10 min
other: Emax, vehicle-subtracted BRET ratio (sites T370,S375,T376,T379): 0.07 BRET ratio

mu-opioid receptor (MOR, mMOR) (from UniProt P42866) morphine
percent of reference (reference: DAMGO, sites T376,T379): weaker; reference 100
